Among the data in paper PMC4655287, “Selection of Single-Stranded DNA Molecular Recognition Elements against Exotoxin A Using a Novel Decoy-SELEX Method and Sensitive Detection of Exotoxin A in Human Serum” are Kd values, retold here.

For the series, the target named is Exotoxin A (Pseudomonas aeruginosa, UniProt P11439 26-638). Briefly: SPR; […]; 0-2 uM analyte, 1:1 kinetic model; SPR (Biacore X100): 100 mM NaCl, 20 mM Tris-HCl, 2 mM MgCl2 (pH not stated), room temperature, 5 uL/min. The following applies: protein: commercial; tags: none stated. A general note: In SPR one partner is held on a chip, and binding of the other changes the refractive index at the surface.
Chain of Exotoxin A (P11439 26-638): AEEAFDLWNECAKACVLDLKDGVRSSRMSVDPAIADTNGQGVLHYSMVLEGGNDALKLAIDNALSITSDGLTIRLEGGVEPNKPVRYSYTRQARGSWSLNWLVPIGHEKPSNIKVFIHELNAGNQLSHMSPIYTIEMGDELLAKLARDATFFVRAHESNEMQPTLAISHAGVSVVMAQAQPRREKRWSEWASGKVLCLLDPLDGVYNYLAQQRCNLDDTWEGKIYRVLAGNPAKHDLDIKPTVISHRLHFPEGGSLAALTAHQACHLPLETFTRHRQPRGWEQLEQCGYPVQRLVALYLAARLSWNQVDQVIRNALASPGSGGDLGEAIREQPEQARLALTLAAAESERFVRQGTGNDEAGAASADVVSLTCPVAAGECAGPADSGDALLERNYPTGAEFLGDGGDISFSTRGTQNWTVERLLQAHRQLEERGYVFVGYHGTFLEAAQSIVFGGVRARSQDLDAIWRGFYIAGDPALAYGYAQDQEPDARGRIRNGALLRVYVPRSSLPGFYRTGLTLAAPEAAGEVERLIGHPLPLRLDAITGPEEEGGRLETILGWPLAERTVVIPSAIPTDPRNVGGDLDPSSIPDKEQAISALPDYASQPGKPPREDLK

As usually defined, the Kd is the equilibrium constant for the complex coming apart.

B1: R14.33 (ssDNA)
DNA: TGTACCGTCTGAGCGATTCGTACCATAGGGTGCTTTTCAAGGCCACACGTTAGTGTAAGCCAGTCAGTGTTAAGGAGTGC
modifications: 5' amino-C6
With B1, the affinity, expressed as Kd, was 4.35 µM.
